Where no end group is shown, it is not given here. The star is where a group is joined. Biotin = O=C1N[C@H]2[C@H](CS[C@H]2CCCCC(=O)*)N1
Tests used:
FITC-Ovalbumin = target: T1, FITC-Ovalbumin (Gallus gallus, UniProt P01012); assay: Flow cytometric, particle-based binding assay with control protein FITC-Ovalbumin (specificity); conditions: FITC-Ovalbumin (25 nM); biot-VIVIT-Peptid (300 nM)
T1 construct: purchased Sigma
T1 sequence (P01012 1-386): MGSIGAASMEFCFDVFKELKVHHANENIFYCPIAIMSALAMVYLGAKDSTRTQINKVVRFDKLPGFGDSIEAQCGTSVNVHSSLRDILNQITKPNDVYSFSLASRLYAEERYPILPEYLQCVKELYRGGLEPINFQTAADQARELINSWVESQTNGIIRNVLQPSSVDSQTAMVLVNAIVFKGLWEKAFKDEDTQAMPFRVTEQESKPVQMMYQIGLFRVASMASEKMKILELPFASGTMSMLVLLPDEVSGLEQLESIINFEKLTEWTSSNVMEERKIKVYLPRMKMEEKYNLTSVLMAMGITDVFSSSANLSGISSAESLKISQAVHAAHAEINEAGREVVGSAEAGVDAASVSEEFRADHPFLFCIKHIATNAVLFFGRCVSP

[1] = target: T2, Rekombinantes menschliches CaN (Homo sapiens, UniProt Q08209); assay: Flow cytometric, particle-based binding assay: FITC-CaN bound via biotinylated peptide to streptavidin beads; conditions: FITC-CaN (25 nM), versus control without peptide; for mittlere Fluoreszenzintensität (Bindung von FITC-CaN über biotinyliertes Peptid an Beads): biot-VIVIT-Peptid (300 nM), Streptavidin-Beads (50000); for mittlere Fluoreszenzintensität (Bindung von FITC-CaN über NFAT-B-Peptid an Beads): biot-NFAT-B-Peptid (4µM)
T2 construct: made in house; host or cells: E. coli
Protocol: Der Assaypuffer war wie folgt zusammengesetzt: 25mM Tris/HCl, 3mM MgCl2, 1mM EGTA, 0,5mM DTT oder TCEP, pH 7,4. Wenn nicht anders angegeben, wurde der Assaypuffer noch mit 0,05% BSA (PAA laboratories) versetzt.
Rekombinantes menschliches CaN wurde in Boratpuffer aufgenommen und mit FITC (Sigma) in einem molaren Verhältnis von 1:12 für 1h auf Eis und vor Licht geschützt inkubiert. Das ungebundenen FITC wurde dann über eine PD10 Säule (Amersham-Pharmacia) abgetrennt.
NFAT-B Peptid (4 µM) für 10 min lichtgeschützt auf Eis inkubierte, wurden 50000 beads in 10 µl Asaypuffer pipettiert. Nach weiteren 10 min Inkubation wurde das Reaktionsgemisch (110 µl) im Durchflusszytometer "FacsCalibur" (BD Biosciences) gemessen. […] Assay vorgeschaltet. Dafür wurde 1 µl Inhibitor (in DMSO) zu FITC-CaN in Assaypuffer (94 µl) pipettiert und anschließend für 30 min lichtgeschützt auf Eis belassen. Die Auswertung der Meßdaten erfolgte mit der Software CellQuest (BD Biosciences).

Row | Substance | Fluoreszenzintensität (Bindung des Kontrollproteins FITC-Ovalbumin) (FITC-Ovalbumin) | mittlere Fluoreszenzintensität (Bindung von FITC-CaN über biotinyliertes Peptid an Beads) [1] | mittlere Fluoreszenzintensität (Bindung von FITC-CaN über NFAT-B-Peptid an Beads) ([1]; mit Ca2+/Calmodulin) | mittlere Fluoreszenzintensität (Bindung von FITC-CaN über NFAT-B-Peptid an Beads) ([1]; ohne Ca2+/Calmodulin) | mittlere Fluoreszenzintensität (Bindung von FITC-CaN über biotinyliertes Peptid an Beads) ([1]; listed as biot-TIVIV-Peptid)
1 | GGRRKRSESSKQQKPLE [AKAP79] | bindet | bindet |  |  | 
2 | KGGFCDQYLAVPQHPYQWAK [biot-NFAT-B-Peptid] |  |  | höhere mittlere Fluoreszenzintensität | höhere mittlere Fluoreszenzintensität | 
3 | biotinyl-EEHPGTIVIVPHPGAMG (Biotin-EEHPGTIVIVPHPGAMG) [biot-TIVIV] |  | nicht mit biot-TIVIV eine erhöhte Fluoreszenzintensität |  |  | keine erhöhte Fluoreszenzintensität
